Experimental data as given in paper PMC7048800.

Key:
[1] = target: T1, Long-HsNMT1 (human N-myristoyltransferase 1, residues 99-496) (human) (UniProt P30419)
T1 sequence: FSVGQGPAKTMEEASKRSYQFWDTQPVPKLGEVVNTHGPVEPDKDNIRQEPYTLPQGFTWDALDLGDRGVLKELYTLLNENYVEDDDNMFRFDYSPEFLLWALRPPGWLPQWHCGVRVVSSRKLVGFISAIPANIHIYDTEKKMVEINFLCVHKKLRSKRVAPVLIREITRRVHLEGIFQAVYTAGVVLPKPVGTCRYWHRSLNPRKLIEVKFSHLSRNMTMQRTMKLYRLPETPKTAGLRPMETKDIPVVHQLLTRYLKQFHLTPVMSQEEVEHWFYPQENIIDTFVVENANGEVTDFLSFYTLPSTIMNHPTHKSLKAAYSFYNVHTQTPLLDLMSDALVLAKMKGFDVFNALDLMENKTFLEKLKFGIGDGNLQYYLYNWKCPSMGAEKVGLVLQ

[2] = target: HsNMT1ΔC3 (HsNMT1 variant with truncation of the last three amino acids) (human) (UniProt P30419)
[3] = target: HsNMT1ΔC2 (HsNMT1 deletion variant with truncation of the last two amino acids) (human) (UniProt P30419)

Km for the peptide in the fluorescence-based coupled in vitro MYR assay with MyrCoA, 30 °C [1]: 18 µM
Km for the peptide in the fluorescence-based coupled in vitro MYR assay with MyrCoA, 30 °C [2]: 2140 µM
Km for the peptide in the fluorescence-based coupled in vitro MYR assay with MyrCoA, 30 °C [3]: 629 µM
B1: GlyCysSerValSerLysLysLys (SOS3) peptide (peptide)
peptide: GCSVSKKK
